Measurements taken from US20030092066A1, “Purified Stat proteins and methods of purifying thereof” (published 2003).
Each block holds one molecule with its values, some of them ahead of it.

Key:
[1] = biological target: tyrosine-phosphorylated Stat1tc, truncated Stat1 (132-713) (human) (UniProt P42224); test: cell-based or functional assay
[2] = biological target: tyrosine-phosphorylated human Stat1α (human) (UniProt P42224); test: cell-based or functional assay
[3] = biological target: nonphosphorylated human Stat1α (human) (UniProt P42224); test: cell-based or functional assay
[4] = biological target: T1, Stat1tc (Stat1 132-713, Tyr701-phosphorylated, NEM-alkylated) (Homo sapiens, UniProt P42224 SEQ:1-582); test: EMSA; dimer and two-dimer complexes both displaced in <1 min; no stabilisation (lacks residues 1-131); conditions: tags: none; E. coli; initiator Met absent; phosphorylated in vitro by EGF-receptor kinase; chain copies: 2 (stated, homodimer); label: 32P (Klenow fill-in); protruding 5'-TCC, filled in; two parallel sites
T1 chain: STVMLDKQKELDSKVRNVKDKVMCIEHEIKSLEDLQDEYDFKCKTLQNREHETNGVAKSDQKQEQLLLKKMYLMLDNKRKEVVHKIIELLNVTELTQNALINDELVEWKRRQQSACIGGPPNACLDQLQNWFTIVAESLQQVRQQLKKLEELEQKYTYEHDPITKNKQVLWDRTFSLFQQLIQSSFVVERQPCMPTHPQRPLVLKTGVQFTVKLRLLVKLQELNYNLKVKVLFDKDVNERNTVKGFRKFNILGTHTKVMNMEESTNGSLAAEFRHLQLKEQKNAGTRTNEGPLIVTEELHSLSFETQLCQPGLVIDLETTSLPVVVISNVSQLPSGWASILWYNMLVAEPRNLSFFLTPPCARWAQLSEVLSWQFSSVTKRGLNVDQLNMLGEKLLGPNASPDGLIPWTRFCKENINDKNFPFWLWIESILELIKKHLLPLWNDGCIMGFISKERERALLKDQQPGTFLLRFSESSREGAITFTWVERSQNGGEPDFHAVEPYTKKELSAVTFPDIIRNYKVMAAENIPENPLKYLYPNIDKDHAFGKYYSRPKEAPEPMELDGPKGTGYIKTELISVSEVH
Experimental: FIG. 6A. Comparison of the dissociation rates of complexes containing DNA fragments with two consecutive binding sites (2×osWT, 10 bp apart) and Stat1α (right) or Stat1tc (left). 0.5×10⁻⁹ M dimer was prebound with 0.7×10⁻⁹ M radiolabelled DNA for 5 min at room temperature (lanes 1 and 8). After the addition of a 100-fold molar excess of unlabelled DNA at time point zero the reaction was further incubated for the times indicated before aliquots were loaded on a running polyacrylamide gel. At time zero two differently migrating complexes are visible, denoted “(2×(Dimer))” and “Dimer”. Unbound (free) DNA runs at the bottom of the gel.
Dissociation rate determination. Under the reaction conditions described above, each oligonucleotide (at 2×10⁻⁹ M or otherwise stated) was mixed with 0.55×10⁻⁹ M dimer of purified phosphorylated Stat1 protein. The reaction volume was scaled up to 100 μl. The reaction was incubated for 5-15 min at room temperature and for time zero, an aliquot (10 μl) was removed and loaded directly onto a pre-run polyacrylamide gel (see above). […] Gels were dried, exposed to X-ray film and labelled protein/DNA complexes and unbound labelled DNA were quantitated as described above. The half life was determined from a semi-log plot of the numerical data (shifted radioactivity over shifted radioactivity at time zero versus time). […]

[5] = biological target: the molecule itself; test: dimerization in solution, method not given

Molecule: tyrosine-phosphorylated Stat1tc, truncated Stat1 (132-713) (from UniProt P42224 132-713)
displacement of dimeric and [2×(dimeric)] complexes on tandem DNA sites by excess unlabelled oligonucleotide [1]: < 1 min

B1: 2xcfosWT tandem, 10 bp spacing (dsDNA)
DNA 1: AGTCAGTTCCCGTCAATGCATCAGGTTCCCGTCAATGCAT
DNA 2: ATGCATTGACGGGAACCTGATGCATTGACGGGAACTGACT
binding result [4]: binds

B2: amino terminal domain of Stat1 (amino terminal 131 amino acids) (other)
chain: MSQWYELQQLDSKFLEQVHQLYDDSFPMEIRQYLAQWLEKQDWEHAANDVSFATIRFHDLLSQLDDQYSRFSLENNFLLQHNIRKSKRNLQDNFQEDPIQMSMIIYSCLKEERKILENAQRFNQAQSGNIQ
notes: also called 16 kDa fragment; N-terminal fragment
binding result [5]: binds

Results, then the molecule that gave them:

displacement of the [2×(dimeric)] complex on tandem DNA sites by excess unlabelled oligonucleotide [2]: > 30 min
Molecule: tyrosine-phosphorylated human Stat1α (from UniProt P42224 1-750)

percentage of Stat protein that was phosphorylated [3]: < 75%
Molecule: EGF-receptor from human carcinoma A431 cells (from UniProt P00533 25-1210)
